Reference: US20160319321

Legend:
[1] = biological target: T1, Lys(Dnp)-DDEGDR-HAEGT-Lys(Abz)amide
T1 chain: KDDEGDRHAEGTK

[2] = biological target: T2, Lys(Dnp)-VEGDR-HAEGT-Lys(Abz)amide
T2 chain: KVEGDRHAEGTK

[3] = biological target: T3, DVKPGQELYDEGDR-[Arg34]GLP-1(9-37)
T3 chain: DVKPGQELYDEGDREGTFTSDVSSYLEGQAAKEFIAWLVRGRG

[4] = biological target: T4, DVEPGQPLYDEGDR-[Arg34]GLP-1(9-37)
T4 chain: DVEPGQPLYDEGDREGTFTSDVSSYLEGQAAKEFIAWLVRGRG

[5] = biological target: T5, Lys(Dnp)-DGGDR-HGEGT-Lys(Abz)amide
T5 chain: KDGGDRHGEGTK

[6] = biological target: T6, DVKPGQPLYDDDDK-[Arg34]GLP-1(9-37)
T6 chain: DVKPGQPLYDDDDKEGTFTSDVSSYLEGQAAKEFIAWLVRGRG

[7] = biological target: T7, Lys(Dnp)-SDEGDR-HAEGT-Lys(Abz)amide
T7 chain: KSDEGDRHAEGTK

[8] = biological target: T8, Lys(Dnp)-RDEGDR-HAEGT-Lys(Abz)amide
T8 chain: KRDEGDRHAEGTK

[9] = biological target: T9, Lys(Dnp)-DLGDR-HGEGT-Lys(Abz)amide
T9 chain: KDLGDRHGEGTK

[10] = biological target: T10, Lys(Dnp)-EWGDR-HAEGT-Lys(Abz)amide
T10 chain: KEWGDRHAEGTK

[11] = biological target: T11, Lys(Dnp)-EEGDR-EGTFT-Lys(Abz)amide
T11 chain: KEEGDREGTFTK

[12] = biological target: T12, Lys(Dnp)-IDEGDR-HAEGT-Lys(Abz)amide
T12 chain: KIDEGDRHAEGTK

[13] = biological target: T13, Lys(Dnp)-DHGDR-HAEGT-Lys(Abz)amide
T13 chain: KDHGDRHAEGTK

[14] = biological target: T14, DVEPGQPLYDDDDK-[Arg34]GLP-1(9-37)
T14 chain: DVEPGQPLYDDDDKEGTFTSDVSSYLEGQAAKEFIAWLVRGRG

[15] = biological target: T15, Lys(Dnp)-EHGDR-HAEGT-Lys(Abz)amide
T15 chain: KEHGDRHAEGTK

[16] = biological target: T16, DVKPGEPLYDEGDR-[Arg34]GLP-1(9-37)
T16 chain: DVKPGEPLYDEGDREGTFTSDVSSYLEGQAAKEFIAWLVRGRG

[17] = biological target: T17, Lys(Dnp)-ESGDR-HGEGT-Lys(Abz)amide
T17 chain: KESGDRHGEGTK

[18] = biological target: T18, Lys(Dnp)-ELGDR-EGTFT-Lys(Abz)amide
T18 chain: KELGDREGTFTK

[19] = biological target: T19, Lys(Dnp)-EDGDR-HAEGT-Lys(Abz)amide
T19 chain: KEDGDRHAEGTK

[20] = biological target: T20, Lys(Dnp)-DQGDR-HAEGT-Lys(Abz)amide
T20 chain: KDQGDRHAEGTK

[21] = biological target: T21, DVKPGQPEYDDDDK-[Arg34]GLP-1(9-37)
T21 chain: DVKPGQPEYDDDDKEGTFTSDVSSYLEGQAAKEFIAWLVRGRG

[22] = biological target: T22, Lys(Dnp)-PDEGDR-HAEGT-Lys(Abz)amide
T22 chain: KPDEGDRHAEGTK

[23] = biological target: T23, Lys(Dnp)-YDEGDR-HAEGT-Lys(Abz)amide
T23 chain: KYDEGDRHAEGTK

[24] = biological target: T24, Lys(Dnp)-EGGDR-EGTFT-Lys(Abz)amide
T24 chain: KEGGDREGTFTK

[25] = biological target: T25, DVKPGQPEYDEGDR-[Arg34]GLP-1(9-37)
T25 chain: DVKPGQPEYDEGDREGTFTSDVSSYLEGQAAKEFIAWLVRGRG

[26] = biological target: T26, DVKPGQPLEDDDDK-[Arg34]GLP-1(9-37)
T26 chain: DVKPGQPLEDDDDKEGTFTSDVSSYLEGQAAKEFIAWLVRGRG

[27] = biological target: T27, Lys(Dnp)-INDDRHAEGT-Lys(Abz)amide
T27 chain: XINDDRHAEGTX

[28] = biological target: T28, Lys(Dnp)-EHGDR-EGTFT-Lys(Abz)amide
T28 chain: KEHGDREGTFTK

[29] = biological target: T29, DVKPGQPLADDDDK-[Arg34]GLP-1(9-37)
T29 chain: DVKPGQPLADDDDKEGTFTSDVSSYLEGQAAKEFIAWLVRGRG

[30] = biological target: T30, Lys(Dnp)-DEGDR-QGTFT-Lys(Abz)amide
T30 chain: KDEGDRQGTFTK

[31] = biological target: T31, Lys(Dnp)-FDEGDR-HAEGT-Lys(Abz)amide
T31 chain: KFDEGDRHAEGTK

[32] = biological target: T32, DVKPEQPLYDDDDK-[Arg34]GLP-1(9-37)
T32 chain: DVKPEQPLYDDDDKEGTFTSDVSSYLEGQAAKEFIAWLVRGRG

[33] = biological target: T33, Lys(Dnp)-DDGDR-QGTFT-Lys(Abz)amide
T33 chain: KDDGDRQGTFTK

[34] = biological target: T34, Lys(Dnp)-DQGDR-EGTFT-Lys(Abz)amide
T34 chain: KDQGDREGTFTK

[35] = biological target: T35, Lys(Dnp)-DEGDR-HSQGT-Lys(Abz)amide
T35 chain: KDEGDRHSQGTK

[36] = biological target: T36, Lys(Dnp)-VDEGDR-HAEGT-Lys(Abz)amide
T36 chain: KVDEGDRHAEGTK

[37] = biological target: T37, Lys(Dnp)-ADEGDR-HAEGT-Lys(Abz)amide
T37 chain: KADEGDRHAEGTK

[38] = biological target: T38, Lys(Dnp)-LDEGDR-HAEGT-Lys(Abz)amide
T38 chain: KLDEGDRHAEGTK

[39] = biological target: T39, Lys(Dnp)-DTGDR-HAEGT-Lys(Abz)amide
T39 chain: KDTGDRHAEGTK

B1: bovine Enterokinase light chain variant (C112A, L134K, I135K) (protein)
chain: IVGGSDSREGAWPWVVALYFDDQQVCGASLVSRDWLVSAAHCVYGRNMEPSKWKAVLGLHMASNLTSPQIETRLIDQIVINPHYNKRRKNNDIAMMHLEMKVNYTDYIQPIALPEENQVFPPGRICSIAGWGAKKYQGSTADVLQEADVPLLSNEKCQQQMPEYNITENMVCAGYEAGGVDSCQGDSGGPLMCQENNRWLLAGVTSFGYQCALPNRPGVYARVPRFTEWIQSFLH
Activity (%) [1]: 113% | Activity (%) [2]: 388% | Activity (%) [3]: 1040% | Activity (%) [4]: 951% | Activity (%) [5]: 301% | Activity (%) [6]: 136% | Activity (%) [7]: 222% | Activity (%) [8]: 222% | Activity (%) [9]: 438% | Activity (%) [10]: 456% | Activity (%) [11]: 580% | Activity (%) [12]: 283% | Activity (%) [13]: 545% | Activity (%) [14]: 203% | Activity (%) [15]: 549% | Activity (%) [16]: 895% | Activity (%) [17]: 221% | Activity (%) [18]: 396% | Activity (%) [19]: 632% | Activity (%) [20]: 770% | Activity (%) [21]: 158% | Activity (%) [22]: 194% | Activity (%) [23]: 153% | Activity (%) [24]: 380% | Activity (%) [25]: 625% | Activity (%) [26]: 100% | Activity (%) [27]: 126% | Activity (%) [28]: 339% | Activity (%) [29]: 134% | Activity (%) [30]: 411% | Activity (%) [31]: 200% | Activity (%) [32]: 167% | Activity (%) [33]: 338% | Activity (%) [34]: 412% | Activity (%) [35]: 621% | Activity (%) [36]: 184% | Activity (%) [37]: 100% | Activity (%) [38]: 259% | Activity (%) [39]: 434%
